Data taken from article PMC9482650, “Quantitative fragmentomics allow affinity mapping of interactomes” (Nature Communications, 2022).

What was measured:
Test in all cases: holdup assay
Parameters in all cases: key: below the threshold = too weak to quantify, mostly under pKd 3.1 to 4
AHNAK1, Q09666 = target: AHNAK1, Q09666
APBA1_2, Q02410 = target: T1, APBA1_2, Q02410
T1 sequence (Q02410 742-832, limits assumed, looked up): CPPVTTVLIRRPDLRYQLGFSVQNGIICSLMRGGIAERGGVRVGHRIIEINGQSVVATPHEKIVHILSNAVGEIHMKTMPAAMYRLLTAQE

ARHGEF11, O15085 = target: T2, ARHGEF11, O15085
T2 sequence (O15085 42-136, limits assumed, looked up): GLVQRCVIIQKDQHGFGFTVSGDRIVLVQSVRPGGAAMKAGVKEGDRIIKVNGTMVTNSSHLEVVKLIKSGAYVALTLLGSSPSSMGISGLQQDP

DLG1_1, Q12959 = target: DLG1_1, Q12959
DLG2_3, Q15700 = target: DLG2_3, Q15700
DLG4_2, P78352 = target: DLG4_2, P78352
FRMPD1, Q5SYB0 = target: T3, FRMPD1, Q5SYB0
T3 sequence (Q5SYB0 52-145, limits assumed, looked up): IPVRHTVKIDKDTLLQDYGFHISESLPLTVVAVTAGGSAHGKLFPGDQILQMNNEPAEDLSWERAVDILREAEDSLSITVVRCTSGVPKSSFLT

FRMPD2_2, Q68DX3 = target: FRMPD2_2, Q68DX3
FRMPD4, Q14CM0 = target: FRMPD4, Q14CM0
GORASP2, Q9H8Y8 = target: GORASP2, Q9H8Y8
GRASP, Q7Z6J2 = target: GRASP, Q7Z6J2
GRID2IP_1, A4D2P6 = target: GRID2IP_1, A4D2P6
GRIP1_3, Q9Y3R0 = target: T4, GRIP1_3, Q9Y3R0
T4 sequence (Q9Y3R0 247-346, limits assumed, looked up): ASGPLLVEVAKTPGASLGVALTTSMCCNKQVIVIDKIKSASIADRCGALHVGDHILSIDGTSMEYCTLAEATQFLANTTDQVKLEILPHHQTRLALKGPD

GRIP1_7, Q9Y3R0 = target: T5, GRIP1_7, Q9Y3R0
T5 sequence (Q9Y3R0 999-1096, limits assumed, looked up): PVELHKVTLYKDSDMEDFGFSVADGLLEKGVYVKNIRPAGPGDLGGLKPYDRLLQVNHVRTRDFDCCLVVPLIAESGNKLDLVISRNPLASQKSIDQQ

GRIP2_5, Q9C0E4 = target: GRIP2_5, Q9C0E4
Inadl_1, Q8NI35 = target: Inadl_1, Q8NI35
Inadl_10, Q8NI35 = target: Inadl_10, Q8NI35
LIN7A, O14910 = target: T6, LIN7A, O14910
T6 sequence (O14910 103-200, limits assumed, looked up): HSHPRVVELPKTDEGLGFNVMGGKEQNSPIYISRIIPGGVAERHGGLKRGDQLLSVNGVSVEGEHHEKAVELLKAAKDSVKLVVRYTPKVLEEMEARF

LIN7B, Q9HAP6 = target: T7, LIN7B, Q9HAP6
T7 sequence (Q9HAP6 88-185, limits assumed, looked up): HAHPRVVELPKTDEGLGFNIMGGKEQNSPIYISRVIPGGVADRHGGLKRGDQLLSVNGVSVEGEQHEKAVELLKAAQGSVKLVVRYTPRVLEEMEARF

MAGI2_3, Q86UL8 = target: MAGI2_3, Q86UL8
MPP2, Q14168 = target: T8, MPP2, Q14168
T8 sequence (Q14168 180-250, limits assumed, looked up): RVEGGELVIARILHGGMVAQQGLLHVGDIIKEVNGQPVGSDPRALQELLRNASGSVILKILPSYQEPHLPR

NHERF4_1, Q86UT5-2 = target: NHERF4_1, Q86UT5-2
NHERF4_4, Q86UT5 = target: NHERF4_4, Q86UT5
PCLO, Q9Y6V0 = target: T9, PCLO, Q9Y6V0
T9 sequence (Q9Y6V0 4491-4600, limits assumed, looked up): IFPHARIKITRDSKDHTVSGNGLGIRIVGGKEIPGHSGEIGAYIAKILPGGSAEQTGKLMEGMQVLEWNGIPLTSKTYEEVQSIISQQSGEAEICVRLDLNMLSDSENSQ

PTPN3, P26045 = target: PTPN3, P26045
SNTG2, Q9NY99 = target: T10, SNTG2, Q9NY99
T10 sequence (Q9NY99 68-166, limits assumed, looked up): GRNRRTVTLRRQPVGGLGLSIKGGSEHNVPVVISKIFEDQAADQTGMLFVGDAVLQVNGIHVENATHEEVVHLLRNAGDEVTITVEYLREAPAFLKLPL

TX1BP3, O14907 = target: T11, TX1BP3, O14907
T11 sequence (O14907 10-122, limits assumed, looked up): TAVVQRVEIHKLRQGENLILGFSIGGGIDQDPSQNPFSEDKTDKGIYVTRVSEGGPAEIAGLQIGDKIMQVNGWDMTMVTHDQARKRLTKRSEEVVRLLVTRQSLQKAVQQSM

[1] = plain residues with an end cap or a label only (N-terminal biotin on a linker: ahx)
[2] = plain residues with an end cap or a label only (N-terminal biotin on a linker: ado-ado)

Chain of MAGI2_3, Q86UL8 (Q86UL8 600-682): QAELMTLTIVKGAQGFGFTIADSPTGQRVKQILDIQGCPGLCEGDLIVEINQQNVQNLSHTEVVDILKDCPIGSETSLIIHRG
Chain of FRMPD4, Q14CM0 (Q14CM0 67-160): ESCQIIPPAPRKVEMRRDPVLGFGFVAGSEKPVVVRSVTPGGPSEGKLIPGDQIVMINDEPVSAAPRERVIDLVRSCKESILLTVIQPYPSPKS
Chain of GRID2IP_1, A4D2P6 (A4D2P6 1-87): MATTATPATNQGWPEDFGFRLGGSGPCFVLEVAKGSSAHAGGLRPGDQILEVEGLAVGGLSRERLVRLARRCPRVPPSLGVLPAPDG
Chain of GRASP, Q7Z6J2 (Q7Z6J2 96-193): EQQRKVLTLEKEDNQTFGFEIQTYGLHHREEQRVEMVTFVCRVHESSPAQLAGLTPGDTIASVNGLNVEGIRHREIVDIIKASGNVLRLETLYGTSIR
Chain of Inadl_1, Q8NI35 (Q8NI35 113-229): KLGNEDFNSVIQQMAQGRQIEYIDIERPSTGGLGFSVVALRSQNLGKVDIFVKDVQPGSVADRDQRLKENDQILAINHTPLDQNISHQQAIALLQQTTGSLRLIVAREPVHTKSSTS
Chain of AHNAK1, Q09666 (Q09666 4-100): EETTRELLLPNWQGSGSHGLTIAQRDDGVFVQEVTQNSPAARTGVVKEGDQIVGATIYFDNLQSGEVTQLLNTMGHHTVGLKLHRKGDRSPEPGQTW
Chain of NHERF4_4, Q86UT5 (Q86UT5 464-550): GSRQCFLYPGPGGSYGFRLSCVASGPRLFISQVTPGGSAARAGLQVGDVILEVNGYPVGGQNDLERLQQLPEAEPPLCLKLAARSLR
Chain of FRMPD2_2, Q68DX3 (Q68DX3 944-1038): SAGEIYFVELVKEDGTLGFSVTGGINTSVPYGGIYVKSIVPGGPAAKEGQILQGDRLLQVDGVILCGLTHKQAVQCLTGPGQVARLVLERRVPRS
Chain of GRIP2_5, Q9C0E4 (Q9C0E4 544-642): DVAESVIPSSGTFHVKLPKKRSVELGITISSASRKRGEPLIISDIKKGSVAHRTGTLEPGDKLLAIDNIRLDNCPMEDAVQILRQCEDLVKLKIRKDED
Chain of NHERF4_1, Q86UT5-2 (Q86UT5 other isoform, or with tags, fused parts or gaps): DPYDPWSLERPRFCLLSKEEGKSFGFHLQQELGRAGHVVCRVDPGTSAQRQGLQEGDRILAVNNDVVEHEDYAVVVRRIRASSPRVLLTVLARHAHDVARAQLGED
Chain of DLG4_2, P78352 (P78352 155-259): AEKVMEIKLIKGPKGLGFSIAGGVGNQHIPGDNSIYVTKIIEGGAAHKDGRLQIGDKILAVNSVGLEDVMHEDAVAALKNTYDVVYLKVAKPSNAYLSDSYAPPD
Chain of PTPN3, P26045 (P26045 505-587): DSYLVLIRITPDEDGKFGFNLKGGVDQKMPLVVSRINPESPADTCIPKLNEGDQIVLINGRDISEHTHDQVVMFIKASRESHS
Chain of Inadl_10, Q8NI35 (Q8NI35 1673-1763): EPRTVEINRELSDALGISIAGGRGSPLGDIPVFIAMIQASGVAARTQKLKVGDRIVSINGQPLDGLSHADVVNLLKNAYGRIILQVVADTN

HSATSVHTSV [MTMR1, Q13613]
pKd (AHNAK1, Q09666; [1]): below the threshold | pKd (APBA1_2, Q02410; [1]): below the threshold | pKd (ARHGEF11, O15085; [1]): 3.75 | pKd (DLG1_1, Q12959; [1]): 4.26 | pKd (DLG2_3, Q15700; [1]): 4.44 | pKd (DLG4_2, P78352; [1]): 4.7 | pKd (FRMPD1, Q5SYB0; [1]): below the threshold | pKd (FRMPD2_2, Q68DX3; [1]): below the threshold | pKd (FRMPD4, Q14CM0; [1]): below the threshold | pKd (GORASP2, Q9H8Y8; [1]): below the threshold | pKd (GRASP, Q7Z6J2; [1]): 4 | pKd (GRID2IP_1, A4D2P6; [1]): below the threshold | pKd (GRIP1_3, Q9Y3R0; [1]): below the threshold | pKd (GRIP1_7, Q9Y3R0; [1]): below the threshold | pKd (GRIP2_5, Q9C0E4; [1]): below the threshold | pKd (Inadl_1, Q8NI35; [1]): below the threshold | pKd (Inadl_10, Q8NI35; [1]): 3.62 | pKd (LIN7A, O14910; [1]): below the threshold | pKd (LIN7B, Q9HAP6; [1]): below the threshold | pKd (MAGI2_3, Q86UL8; [1]): below the threshold | pKd (MPP2, Q14168; [1]): below the threshold | pKd (NHERF4_1, Q86UT5-2; [1]): below the threshold | pKd (NHERF4_4, Q86UT5; [1]): below the threshold | pKd (PCLO, Q9Y6V0; [1]): below the threshold | pKd (PTPN3, P26045; [1]): 4.16 | pKd (SNTG2, Q9NY99; [1]): 3.5 | pKd (TX1BP3, O14907; [1]): 3.8

SQDPKKPSRV [CBY2, Q8NA61]
pKd (AHNAK1, Q09666; [2]): below the threshold | pKd (APBA1_2, Q02410; [2]): 3.97 | pKd (ARHGEF11, O15085; [2]): below the threshold | pKd (DLG1_1, Q12959; [2]): below the threshold | pKd (DLG2_3, Q15700; [2]): below the threshold | pKd (DLG4_2, P78352; [2]): 3.49 | pKd (FRMPD1, Q5SYB0; [2]): below the threshold | pKd (FRMPD2_2, Q68DX3; [2]): below the threshold | pKd (FRMPD4, Q14CM0; [2]): below the threshold | pKd (GORASP2, Q9H8Y8; [2]): below the threshold | pKd (GRASP, Q7Z6J2; [2]): below the threshold | pKd (GRID2IP_1, A4D2P6; [2]): below the threshold | pKd (GRIP1_3, Q9Y3R0; [2]): below the threshold | pKd (GRIP1_7, Q9Y3R0; [2]): below the threshold | pKd (GRIP2_5, Q9C0E4; [2]): below the threshold | pKd (Inadl_1, Q8NI35; [2]): below the threshold | pKd (Inadl_10, Q8NI35; [2]): below the threshold | pKd (LIN7A, O14910; [2]): below the threshold | pKd (LIN7B, Q9HAP6; [2]): below the threshold | pKd (MAGI2_3, Q86UL8; [2]): below the threshold | pKd (MPP2, Q14168; [2]): below the threshold | pKd (NHERF4_1, Q86UT5-2; [2]): below the threshold | pKd (NHERF4_4, Q86UT5; [2]): 3.67 | pKd (PCLO, Q9Y6V0; [2]): below the threshold | pKd (PTPN3, P26045; [2]): below the threshold | pKd (SNTG2, Q9NY99; [2]): below the threshold | pKd (TX1BP3, O14907; [2]): below the threshold
